No end group written: not given here.
Target: T1, human islet amyloid polypeptide (IAPP), C-terminally amidated (human, C-terminal amide)
T1 construct: islet amyloid polypeptide (amylin), human, the 37-residue peptide hormone, residues 1-37; numbers count on: the mature protein; also called amylin
T1 chain: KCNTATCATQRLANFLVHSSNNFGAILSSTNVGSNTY
Test: native MS
Conditions: both partners purified

B1: NCAM1-PrP (NCAM1(1-19)-PrP(23-28)) cell-penetrating peptide construct (peptide)
chain: MLRTKDLIWTLFFLGTAVSKKRPKP-NH2
notes: also called NPr; CPP
stoichiometry N: 1

— PMC13104032, “Prion Protein-Derived Cell-Penetrating Peptide Inhibits Type II Diabetes-Associated Islet Amyloid Polypeptide Aggregation and Cytotoxicity” (Biochemistry, 2026)
